Test results as given in patent US20230183334A1, “THERAPEUTIC ANTIBODY FORMULATION” (published 2023).

Biological target: T1, IL-17A (human, UniProt Q16552)
T1 sequence: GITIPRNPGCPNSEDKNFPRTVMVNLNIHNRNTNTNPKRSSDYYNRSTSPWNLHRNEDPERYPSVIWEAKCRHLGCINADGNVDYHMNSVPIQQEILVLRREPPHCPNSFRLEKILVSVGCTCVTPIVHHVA
Test: cell-based or functional assay

B1: ixekizumab (antibody, V domains shown)
VH: QVQLVQSGAEVKKPGSSVKVSCKASGYSFTDYHIHWVRQAPGQGLEWMGVINPMYGTTDYNQRFKGRVTITADESTSTAYMELSSLRSEDTAVYYCARYDYFTGTGVYWGQGTLVTVSS
VL: DIVMTQTPLSLSVTPGQPASISCRSSRSLVHSRGNTYLHWYLQKPGQSPQLLIYKVSNRFIGVPDRFSGSGSGTDFTLKISRVEAEDVGVYYCSQSTHLPFTFGQGTKLEIKR
In the case of B1, the “Relative potency of Formulation A (% relative to Formulation B; ratio of EC50s), 1 month at 5° C.” value is reported as 101%, the “Relative potency of Formulation A (% relative to Formulation B; ratio of EC50s), 1 month at 25° C.” value is reported as 98% and the “Relative potency of Formulation A (% relative to Formulation B; ratio of EC50s), 1 month at 35° C.” value is reported as 101%. For the same binder, the “Relative potency of Formulation A (% relative to Formulation B; ratio of EC50s), 6 months at 5° C.” value was 103% and the “Relative potency of Formulation A (% relative to Formulation B; ratio of EC50s), 12 months at 5° C.” value was 98%.
